These are literature values, as cited in PMC12672491.

The target of data set [1] is importin-α3 (Homo sapiens) (UniProt O00629).
Data set [2] shares this target. The source holds these as a separate data set.

Like-named read-outs stand apart in the source and are kept apart here.

Sequence of UniProt O00629 (O00629 2-521): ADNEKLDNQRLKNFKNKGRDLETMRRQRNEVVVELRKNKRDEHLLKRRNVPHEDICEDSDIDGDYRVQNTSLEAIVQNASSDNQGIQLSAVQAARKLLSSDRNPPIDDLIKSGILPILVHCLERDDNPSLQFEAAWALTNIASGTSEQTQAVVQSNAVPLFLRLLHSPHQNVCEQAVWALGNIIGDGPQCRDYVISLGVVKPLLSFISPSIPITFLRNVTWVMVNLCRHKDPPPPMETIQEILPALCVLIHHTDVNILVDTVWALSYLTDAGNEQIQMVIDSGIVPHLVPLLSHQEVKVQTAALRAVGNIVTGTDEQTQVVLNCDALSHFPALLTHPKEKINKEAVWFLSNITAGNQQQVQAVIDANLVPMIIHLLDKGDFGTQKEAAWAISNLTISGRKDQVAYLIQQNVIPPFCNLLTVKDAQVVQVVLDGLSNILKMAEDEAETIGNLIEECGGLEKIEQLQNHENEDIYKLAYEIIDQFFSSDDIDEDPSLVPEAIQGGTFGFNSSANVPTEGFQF

As usually defined, the Kd is the constant that tells how readily two partners part at equilibrium. Snail (from UniProt O95863): the Kd was 2100 nM in data set [1] and 800 nM in data set [2].
